Measurements as given in IntAct's records for PubMed 20890305.

B1: Mitogen-activated protein kinase kinase kinase 11 (Homo sapiens), Q16584 (parent)
chain: MEPLKSLFLKSPLGSWNGSGSGGGGGGGGGRPEGSPKAAGYANPVWTALFDYEPSGQDELALRKGDRVEVLSRDAAISGDEGWWAGQVGGQVGIFPSNYVSRGGGPPPCEVASFQELRLEEVIGIGGFGKVYRGSWRGELVAVKAARQDPDEDISVTAESVRQEARLFAMLAHPNIIALKAVCLEEPNLCLVMEYAAGGPLSRALAGRRVPPHVLVNWAVQIARGMHYLHCEALVPVIHRDLKSNNILLLQPIESDDMEHKTLKITDFGLAREWHKTTQMSAAGTYAWMAPEVIKASTFSKGSDVWSFGVLLWELLTGEVPYRGIDCLAVAYGVAVNKLTLPIPSTCPEPFAQLMADCWAQDPHRRPDFASILQQLEALEAQVLREMPRDSFHSMQEGWKREIQGLFDELRAKEKELLSREEELTRAAREQRSQAEQLRRREHLLAQWELEVFERELTLLLQQVDRERPHVRRRRGTFKRSKLRARDGGERISMPLDFKHRITVQASPGLDRRRNVFEVGPGDSPTFPRFRAIQLEPAEPGQAWGRQSPRRLEDSSNGERRACWAWGPSSPKPGEAQNGRRRSRMDEATWYLDSDDSSPLGSPSTPPALNGNPPRPSLEPEEPKRPVPAERGSSSGTPKLIQRALLRGTALLASLGLGRDLQPPGGPGRERGESPTTPPTPTPAPCPTEPPPSPLICFSLKTPDSPPTPAPLLLDLGIPVGQRSAKSPRREEEPRGGTVSPPPGTSRSAPGTPGTPRSPPLGLISRPRPSPLRSRIDPWSFVSAGPRPSPLPSPQPAPRRAPWTLFPDSDPFWDSPPANPFQGGPQDCRAQTKDMGAQAPWVPEAGP
B2: Merlin (Homo sapiens), P35240 (parent)
chain: MAGAIASRMSFSSLKRKQPKTFTVRIVTMDAEMEFNCEMKWKGKDLFDLVCRTLGLRETWFFGLQYTIKDTVAWLKMDKKVLDHDVSKEEPVTFHFLAKFYPENAEEELVQEITQHLFFLQVKKQILDEKIYCPPEASVLLASYAVQAKYGDYDPSVHKRGFLAQEELLPKRVINLYQMTPEMWEERITAWYAEHRGRARDEAEMEYLKIAQDLEMYGVNYFAIRNKKGTELLLGVDALGLHIYDPENRLTPKISFPWNEIRNISYSDKEFTIKPLDKKIDVFKFNSSKLRVNKLILQLCIGNHDLFMRRRKADSLEVQQMKAQAREEKARKQMERQRLAREKQMREEAERTRDELERRLLQMKEEATMANEALMRSEETADLLAEKAQITEEEAKLLAQKAAEAEQEMQRIKATAIRTEEEKRLMEQKVLEAEVLALKMAEESERRAKEADQLKQDLQEAREAERRAKQKLLEIATKPTYPPMNPIPAPLPPDIPSFNLIGDSLSFDFKDTDMKRLSMEIEKEKVEYMEKSKHLQEQLNELKTEIEALKLKERETALDILHNENSDRGGSSKHNTIKKLTLQSAKSRVAFFEEL

Variants of: B1
Details: with merl_human NF2, P35240

Row | Variant | effect of a mutation on the interaction
1 | K144R | disrupting interaction

Variants of: B2
Details: with MAP3K11, Q16584

Row | Variant | effect of a mutation on the interaction
2 | S518D | decreasing interaction
